Measured values taken from article PMC11461180, “Interaction with IP6K1 supports pyrophosphorylation of substrate proteins by the inositol pyrophosphate 5-InsP7” (Bioscience Reports, 2024).

Target: V5-tagged IP6K1 (human, UniProt Q92551-1 1-441)
Assay: cell-based or functional assay

Sequence of V5-tagged IP6K1 (Q92551 whole entry): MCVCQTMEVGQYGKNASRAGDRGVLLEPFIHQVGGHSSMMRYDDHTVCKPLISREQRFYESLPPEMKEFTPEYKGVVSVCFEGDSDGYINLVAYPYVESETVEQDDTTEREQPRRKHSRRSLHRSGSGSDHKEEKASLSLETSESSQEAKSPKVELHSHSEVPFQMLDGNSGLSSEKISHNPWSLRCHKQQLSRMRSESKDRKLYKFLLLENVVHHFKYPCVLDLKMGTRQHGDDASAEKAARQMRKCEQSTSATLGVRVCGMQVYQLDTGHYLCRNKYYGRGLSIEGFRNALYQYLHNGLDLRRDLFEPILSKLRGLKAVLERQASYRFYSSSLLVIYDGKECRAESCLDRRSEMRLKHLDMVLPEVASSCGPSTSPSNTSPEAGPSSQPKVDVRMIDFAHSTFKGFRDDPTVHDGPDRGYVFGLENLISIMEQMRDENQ

B1: myc epitope-tagged AP3B1 (natural protein, human, UniProt O00203-1 1-1094, looked up)
chain: MSSNSFPYNEQSGGGEATELGQEATSTISPSGAFGLFSSDLKKNEDLKQMLESNKDSAKLDAMKRIVGMIAKGKNASELFPAVVKNVASKNIEIKKLVYVYLVRYAEEQQDLALLSISTFQRALKDPNQLIRASALRVLSSIRVPIIVPIMMLAIKEASADLSPYVRKNAAHAIQKLYSLDPEQKEMLIEVIEKLLKDKSTLVAGSVVMAFEEVCPDRIDLIHKNYRKLCNLLVDVEEWGQVVIIHMLTRYARTQFVSPWKEGDELEDNGKNFYESDDDQKEKTDKKKKPYTMDPDHRLLIRNTKPLLQSRNAAVVMAVAQLYWHISPKSEAGIISKSLVRLLRSNREVQYIVLQNIATMSIQRKGMFEPYLKSFYVRSTDPTMIKTLKLEILTNLANEANISTLLREFQTYVKSQDKQFAAATIQTIGRCATNILEVTDTCLNGLVCLLSNRDEIVVAESVVVIKKLLQMQPAQHGEIIKHMAKLLDSITVPVARASILWLIGENCERVPKIAPDVLRKMAKSFTSEDDLVKLQILNLGAKLYLTNSKQTKLLTQYILNLGKYDQNYDIRDRTRFIRQLIVPNVKSGALSKYAKKIFLAQKPAPLLESPFKDRDHFQLGTLSHTLNIKATGYLELSNWPEVAPDPSVRNVEVIELAKEWTPAGKAKQENSAKKFYSESEEEEDSSDSSSDSESESGSESGEQGESGEEGDSNEDSSEDSSSEQDSESGRESGLENKRTAKRNSKAKGKSDSEDGEKENEKSKTSDSSNDESSSIEDSSSDSESESEPESESESRRVTKEKEKKTKQDRTPLTKDVSLLDLDDFNPVSTPVALPTPALSPSLMADLEGLHLSTSSSVISVSTPAFVPTKTHVLLHRMSGKGLAAHYFFPRQPCIFGDKMVSIQITLNNTTDRKIENIHIGEKKLPIGMKMHVFNPIDSLEPEGSITVSMGIDFCDSTQTASFQLCTKDDCFNVNIQPPVGELLLPVAMSEKDFKKEQGVLTGMNETSAVIIAAPQNFTPSVIFQKVVNVANVGAVPSGQDNIHRFAAKTVHSGSLMLVTVELKEGSTAQLIINTEKTVIGSVLLRELKPVLSQG
back-pyrophosphorylation of myc-AP3B1 by 5[β-32P]InsP7 after immunoprecipitation from IP6K1 knockout HEK293T cells co-expressing IP6K1-V5 and HA-CK2α, with SFB-IDR-1 against without: ~2 fold
